Measurements as given in patent publication US20220017612A1 (TILOS THERAPEUTICS, published 2022).

Columns and labels:
[1] = target: T1, fusion protein of a human IgG1 Fc domain and rat LAP-TGFβ1 (human; rat, UniProt P17246 30-390, limits assumed); experiment: BLI, 2:1 model, component 1
T1 construct: also called rat LAP-TGFβ-Fc
Protocol: (§1) The 20E6_H0.2aL1_IgG1 antibody was biotinylated using EZ-Link SulfoNHS-LC-Biotin (ThermoFisher). A streptavidin-functionalized tip was equilibrated in binding buffer (10 mM sodium phosphate, 150 mM sodium chloride, 1% (w/v) bovine serum albumin, 0.05% (w/v) sodium azide, pH 7.4) and dipped in a 10 μg/mL solution of biotinylated anti-LAP in binding buffer for 30 seconds to load the tip with antibody. The antibody-loaded tip was then washed in binding buffer and placed in a solution containing 0-24 nM of a fusion protein having a human IgG1 Fc domain fused to either human LAP-TGFβ1, human LAP-TGFβ2 or human LAP-TGFβ3. The antigen was allowed to bind to antibody for 5 minutes (association phase), and then the tip was moved to binding buffer (dissociation phase). The association and dissociation phases were fit to a 2:1 heterogenous ligand binding model to determine the binding rate constants. As shown in FIG. 21A and Table 17, 20E6_H0.2aL1_IgG1 bound with sub-nanomolar affinity to human LAP-TGFβ1, but not to human LAP-TGFβ2 (FIG. 21B) or LAP-TGFβ3 (FIG. 21C).
(§2) The binding of 20E6_H0.2aL1_IgG1 antibody and 20E6_H0.2aL1_hIgG4mut antibody to LAP-TGFβ1 of various species was examined by bio-layer interferometry using the method described in Example 12, except that the antibody-loaded tip was placed in a solution containing 0-24 nM of a fusion protein having a human IgG1 Fc domain fused to either mouse, rat, cynomolgus monkey, or human LAP-TGFβ1.

[2] = target: T2, fusion protein of a human IgG1 Fc domain and cynomolgus monkey LAP-TGFβ1 (human; cynomolgus monkey); experiment: BLI, 2:1 model, component 1
T2 construct: also called cynomolgus monkey LAP-TGFβ-Fc
Protocol: as §1, §2

[3] = target: T3, fusion protein of a human IgG1 Fc domain and mouse LAP-TGFβ1 (human; mouse, UniProt P04202 30-390); experiment: BLI, 2:1 model, component 1
T3 construct: also called mouse LAP-TGFβ-Fc
T3 sequence (P04202 30-390 limits assumed): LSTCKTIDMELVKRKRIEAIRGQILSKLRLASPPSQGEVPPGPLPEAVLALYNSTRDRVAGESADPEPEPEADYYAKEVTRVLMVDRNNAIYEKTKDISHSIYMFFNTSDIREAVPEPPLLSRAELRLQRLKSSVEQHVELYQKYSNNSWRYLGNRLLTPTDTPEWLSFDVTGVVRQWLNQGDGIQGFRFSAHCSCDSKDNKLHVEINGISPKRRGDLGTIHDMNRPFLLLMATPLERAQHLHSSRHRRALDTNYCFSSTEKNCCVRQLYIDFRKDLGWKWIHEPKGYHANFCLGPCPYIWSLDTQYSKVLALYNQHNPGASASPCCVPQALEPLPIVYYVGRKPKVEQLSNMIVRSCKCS
Protocol: as §1, §2

[4] = target: T4, fusion protein of a human IgG1 Fc domain and human LAP-TGFβ1 (human, UniProt P01137 30-390); experiment: BLI, 2:1 model, component 1
T4 construct: printed both as Fc-huB1 and LAP-TGFβ-Fc; also called Fc-huB1; Fc-human LAP
T4 sequence (P01137 30-390 limits assumed): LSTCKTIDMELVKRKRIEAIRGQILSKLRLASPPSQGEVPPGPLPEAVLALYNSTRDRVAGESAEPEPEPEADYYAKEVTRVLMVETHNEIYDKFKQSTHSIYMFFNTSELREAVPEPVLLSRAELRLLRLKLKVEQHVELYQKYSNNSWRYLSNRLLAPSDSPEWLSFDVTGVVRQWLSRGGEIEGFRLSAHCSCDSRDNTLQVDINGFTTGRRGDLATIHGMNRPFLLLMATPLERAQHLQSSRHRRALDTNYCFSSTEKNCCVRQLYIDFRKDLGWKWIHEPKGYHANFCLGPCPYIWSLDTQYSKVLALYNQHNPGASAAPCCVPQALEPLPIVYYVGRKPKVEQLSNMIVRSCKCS
Protocol: as §1, §2

[5] = target: T4, fusion protein of a human IgG1 Fc …; experiment: BLI, 2:1 heterogeneous ligand model, component 1
Protocol: as §1

[6] = target: T4, fusion protein of a human IgG1 Fc …; experiment: BLI, 2:1 model, component 2
Protocol: A streptavidin-functionalized tip was equilibrated in binding buffer (10 mM sodium phosphate, 150 mM sodium chloride, 1% (w/v) bovine serum albumin, 0.05% (w/v) sodium azide, pH 7.4) and dipped in a 5 μg/mL solution of biotinylated antibody (i.e., 20E6_H0.2aL1_hIgG1, murine 16F4, or MHG8, a GARP-specific murine IgG2a described in Lienart et al. Science 2018; 362:952-956) in binding buffer for 30 seconds to load the tip with antibody. The antibody-loaded tip was then washed in binding buffer and placed in a solution containing 0-24 nM of a fusion protein containing a human IgG1 Fc domain fused to either human LAP-TGFβ1, the soluble GARP-LAP-TGFβ1 complex, or the soluble ECR3E-LAP-TGFβ1 complex. The antigen was allowed to bind to antibody for 5 minutes (association phase), and then the tip was moved to binding buffer (dissociation phase). The binding and dissociation data for 16F4 and MHG8 were well-fit by a 1:1 binding model. The association and dissociation phases for 20E6_H0.2aL1_hIgG1 antibody were fit to a 2:1 heterogenous ligand binding model to determine the binding rate constants.
As shown in FIG. 24 and Table 21, the 20E6_H0.2aL1_hIgG1 antibody bound to free LAP-TGFβ1 and the soluble GARP-LAP-TGFβ1 complex with nanomolar affinity, but not to the ECR3E-LAP-TGFβ1 complex. As expected, the anti-GARP antibody (MHG8) bound to the GARP-LAP-TGFβ1 complex, but not to free LAP-TGFβ1 or the ECR3E-LAP-TGFβ1 complex. 16F4 bound tightly to all three constructs.

[7] = target: T4, fusion protein of a human IgG1 Fc …; experiment: BLI, antibody on tip, 1:1 model
Protocol: (§3) The chimeric antibodies were biotinylated using EZ-Link SulfoNHS-LC-Biotin (ThermoFisher). A streptavidin-functionalized tip was equilibrated in binding buffer (10 mM sodium phosphate, 150 mM sodium chloride, 1% (w/v) bovine serum albumin, 0.05% (w/v) sodium azide, pH 7.4). The tip was dipped in a 10 μg/mL solution of biotinylated, chimeric anti-LAP in binding buffer for 15 seconds to load the tip with antibody. The antibody-loaded tip was then washed in binding buffer and placed in a solution containing 0-24 nM of LAP-TGFβ1 (either a fusion protein containing a human IgG1 Fc domain fused to human LAP-TGFβ1 or a murine LAP-TGFβ1 with a C-terminal polyhistidine purification tag). The antigen was allowed to bind to antibody for 5 minutes (association phase), and then the tip was moved to binding buffer (dissociation phase). The association and dissociation phases were fit to a 1:1 binding model to determine the binding rate constants.

[8] = target: T5, murine LAP-TGFβ1 with a C-terminal polyhistidine purification tag (mouse, UniProt P04202 30-390); experiment: BLI, antibody on tip, 1:1 model
T5 construct: also called Mouse LAP-TGFβ1
T5 sequence (P04202 30-390 limits assumed): as the sequence (P04202 30-390 limits assumed) above
Protocol: as §3

T1 sequence (P17246 30-390 limits assumed): as the sequence (P04202 30-390 limits assumed) above, with E93D, S99T, L131F, S134T, K202V counted along it

B1: 20E6_H0.2aL1_hIgG1 (antibody)
heavy: not shown
light: DIQMTQSPSSLSASVGDRVTITCRASQDITNYLNWYQQKPGKAVKLLIYYTSRLHSGVPSRFSGSGSGTDYTLTISSLQPEDFATYFCQQGDTLPWTFGQGTKLEIKRTVAAPSVFIFPPSDEQLKSGTASVVCLLNNFYPREAKVQWKVDNALQSGNSQESVTEQDSKDSTYSLSSTLTLSKADYEKHKVYACEVTHQGLSSPVTKSFNRGEC
notes: also called 20E6_H0.2aL1_IgG1; humanized 20E6
[1]
  Kd: 13.4 nM
  koff: 0.0441 s⁻¹
  kon: 3.3e+06 M⁻¹ s⁻¹
[2]
  Kd: 15.8 nM
  koff: 0.0394 s⁻¹
  kon: 2.49e+06 M⁻¹ s⁻¹
[3]
  Kd: 14.2 nM
  koff: 0.0343 s⁻¹
  kon: 2.42e+06 M⁻¹ s⁻¹
[4]
  Kd: 16.5 nM
  koff: 0.0355 s⁻¹
  kon: 2.15e+06 M⁻¹ s⁻¹
[5]
  Kd: 11.4 nM
  koff: 0.0369 s⁻¹
  kon: 3.24e+06 M⁻¹ s⁻¹
[6]
  Kd: 0.96 nM
  koff: 0.00092 s⁻¹
  kon: 960000 M⁻¹ s⁻¹

B2: 22F9_hIgG1 (antibody, V domains shown)
VH: QVQLQQPGAELVKPGASVKLSCKASGYTFTSYWMHWVKQRPGQGLEWIGMIHPNSGSTNYNEKFKSKATLTVDKSSSTAYMQLSSLTSEDSAVYYCAYYDYDGFFDVWGTGTTVTVSS
VL: DIVLTQSPASLDVSLGQRATISCRASKSVSTSGYSYMHWYQQKSGQPPKLLIYLASNLESGVPARFSGSGSGTHFTLNIHPVEEEDAATYYCQHSRELPYTFGGGTKLEIK
[7]
  Kd: 0.76 nM
  koff: 0.000768 s⁻¹
  kon: 1.01e+06 M⁻¹ s⁻¹
[8]
  Kd: 0.37 nM
  koff: 0.000444 s⁻¹
  kon: 1.21e+06 M⁻¹ s⁻¹
